Source: patent US11203743B2, “Method for producing long-chain glycosylated genistein” (Jiangnan University, priority 2019, dated 2021)
Each block holds one molecule with its values, some of them ahead of it.

Assays:
[1] = relative to genistein; cited from earlier work
[2] = Effect of reaction temperature on the yield of long-chain glycosylated genistein; type: biochemical
Protocol: On the basis of Example 2, the mutant A156V/L174P/A166Y with the highest specificity to long-chain glycosylated genistein products was selected, and the reaction temperature was changed into 30° C., 35° C., 40° C., 45° C., 50° C., 55° C. and 60° C. separately.
(§1) With reference to Example 2, the molar content of short-chain glycosylated genistein (here the short-chain glycosylated genistein was a mixture of monoglycosylated genistein, diglycosylated genistein and triglycosylated genistein) and long-chain glycosylated genistein (here the long-chain glycosylated genistein was a mixture of tetraglycosylated genistein, pentaglycosylated genistein and hexaglycosylated genistein) in a reaction solution was detected by HPLC, the ratio (%) of the molar content of short-chain glycosylated genistein and long-chain glycosylated genistein in the reaction solution to the molar content of total glycosylated genistein in the reaction solution and the content (g/L) of short-chain glycosylated genistein and long-chain glycosylated genistein in the reaction solution were calculated, and detection results were shown in Table 4 and FIG. 1.

[3] = Specificity of different cyclodextrin glucosyltransferases to glycosylated genistein products (maltodextrin donor, genistein receptor, HPLC); type: biochemical
Protocol: Genistein (purchased from Sigma) was dissolved in dimethyl sulfoxide (DMSO) to prepare a genistein solution with a final concentration of 7.5 g/L; maltodextrin (purchased from Shanghai Sangon Biotech Co., Ltd.) was dissolved in a PBS buffer (50 mM, pH 6.5) to prepare a maltodextrin solution with a final concentration of 40 g/L; the freeze-fried pure enzymes of the mutants A156V/L174P, A156V/L174P/166Y, A156V/L174P/A166V, A156V/L174P/A166G, A156V/L174P/A166K, A156S, A156L and L174M obtained in Example 1 were dissolved in a PBS buffer (50 mM, pH 6.5) separately to prepare a CGTase enzyme solution with a final concentration of 15 U/L; 300 μL of the genistein solution, 500 μL of the maltodextrin solution and 200 μL of the CGTase enzyme solution were taken separately, mixed in a 2 mL vial with a lid and placed in a shaker for slow shaking at 40° C. and 120 rpm for 20-24 hours to obtain a reaction solution.
The molar content of short-chain glycosylated genistein (here the short-chain glycosylated genistein was a mixture of monoglycosylated genistein, diglycosylated genistein and triglycosylated genistein) and long-chain glycosylated genistein (here the long-chain glycosylated genistein was a mixture of tetraglycosylated genistein, pentaglycosylated genistein and hexaglycosylated genistein) in the reaction solution was detected by HPLC, the ratio (%) of the molar content of short-chain glycosylated genistein and long-chain glycosylated genistein in the reaction solution to the molar content of total glycosylated genistein in the reaction solution and the content (g/L) of short-chain glycosylated genistein and long-chain glycosylated genistein in the reaction solution were calculated, and detection results were shown in Tables 1 to 2. A method for detecting the ratio (%) of the content of short-chain glycosylated genistein and long-chain glycosylated genistein in the reaction solution to the content of total glycosylated genistein in the reaction solution by HPLC included that the reaction solution was filtered through a 0.22 μm filter membrane, and an Amethyst C18-H column (4.6*250 mm, Sepax, America) was used for detection (see Table 3 for specific detection conditions). The content of long-chain glycosylated genistein=the molar content of hexaglycosylated genistein*the molecular weight of hexaglycosylated genistein+ the molar content of pentaglycosylated genistein*the molecular weight of pentaglycosylated genistein+ the molar content of tetraglycosylated genistein*the molecular weight of tetraglycosylated genistein, and the content of short-chain glycosylated genistein=the molar content of triglycosylated genistein*the molecular weight of triglycosylated genistein+ the molar content of diglycosylated genistein*the molecular weight of diglycosylated genistein+ the molar content of monoglycosylated genistein*the molecular weight of monoglycosylated genistein.

[4] = Effect of reaction pH on the yield of long-chain glycosylated genistein; type: biochemical
Protocol: On the basis of Example 2, the mutant A156V/L174P/A166Y with the highest specificity to long-chain glycosylated genistein products was selected, the reaction temperature was controlled to be 50° C., and the reaction pH was changed into 4, 5, 6, 7 and 8 separately.
as §1, with “5” for “4”, “2.” for “1.”

[5] = 40° C., pH 6.5, 120 rpm, 20-24 hours

Molecule: genistein triglucoside
solubility in water, times higher than that of genistein [1]: 44,000 times

Molecule: genistein diglucoside
solubility in water, times higher than that of genistein [1]: 3,700 times

content of long-chain glycosylated genistein in the reaction solution [3, 5]: 8.5 g/L
content of short-chain glycosylated genistein in the reaction solution [3, 5]: 8.0 g/L
ratio of the molar content of long-chain glycosylated genistein to the molar content of total glycosylated genistein in the reaction solution [3, 5]: 40%
ratio of the molar content of short-chain glycosylated genistein to the molar content of total glycosylated genistein in the reaction solution [3, 5]: 60%
specificity to long-chain glycosylated genistein products in comparison with wild type ([3]; in words, from Tables 1 to 2): significantly improved
increase of the yield of long-chain glycosylated genistein compared with wild-type cyclodextrin glucosyltransferase ([3]; versus wild type): 165%
B1: A156V/L174P/A166Y: cyclodextrin glucosyltransferase mutant: A156V, L174P and alanine 166 into tyrosine of SEQ ID NO: 1 (protein)
chain: SPDTSVDNKVNFSTDVIYQIVTDRFADGDRTNNPAGDAFSGDRSNLKLYFGGDWQGIIDKINDGYLTGMGVTALWISQPVENITSVIKYSGVNNTSYHGYWARDFKQTNDAFGDFADFQNLIDTAHAHNIKVVIDFAPNHTSPADRDNPGFAENGVLYDNGSLLGYYSNDTAGPFHHNGGTDFSTIEDGIYKNLYDLADINHNNNAMDAYFKSAIDLWLGMGVDGIRFDAVKHMPFGWQKSFVSSIYGGDHPVFTFGEWYLGADQTDGDNIKFANESGMNLLDFEYAQEVREVFRDKTETMKDLYEVLASTESQYDYINNMVTFIDNHDMDRFQVAGSGTRATEQALALTLTSRGVPAIYYGTEQYMTGDGDPNNRAMMTSFNTGTTAYKVIQALAPLRKSNPAIAYGTTTERWVNNDVLIIERKFGSSAALVAINRNSSAAYPISGLLSSLPAGTYSDVLNGLLNGNSITVGSGGAVTNFTLAAGGTAVWQYTAPETSPAIGNVGPTMGQPGNIVTIDGRGFGGTAGTVYFGTTAVTGSGIVSWEDTQIKAVIPKVAAGKTGVSVKTSSGTASNTFKSFNVLTGDQVTVRFLVNQANTNYGTNVYLVGNAAELGSWDPNKAIGPMYNQVIAKYPSWYYDVSVPAGTKLDFKFIKKGGGTVTWEGGGNHTYTTPASGVGTVTVDWQN
modifications: Translated from synthetic DNA
content of long-chain glycosylated genistein in the reaction solution ([2]; 30° C.): 6.8 g/L
content of short-chain glycosylated genistein in the reaction solution ([2]; 30° C.): 8.9 g/L
content of long-chain glycosylated genistein in the reaction solution ([2]; 35° C.): 7.6 g/L
content of short-chain glycosylated genistein in the reaction solution ([2]; 35° C.): 8.5 g/L
content of long-chain glycosylated genistein in the reaction solution ([2]; 40° C.): 8.4 g/L
content of short-chain glycosylated genistein in the reaction solution ([2]; 40° C.): 8.0 g/L
increase of the yield of long-chain glycosylated genistein in comparison with 40° C. ([2]; 45-50° C. versus 40° C.): 21.4-23.8%
content of long-chain glycosylated genistein in the reaction solution ([2]; 45° C.): 10.1 g/L
content of short-chain glycosylated genistein in the reaction solution ([2]; 45° C.): 6.8 g/L
content of long-chain glycosylated genistein in the reaction solution ([2]; 50° C.): 10.0 g/L
content of short-chain glycosylated genistein in the reaction solution ([2]; 50° C.): 6.6 g/L
content of long-chain glycosylated genistein in the reaction solution ([2]; 55° C.): 8.9 g/L
content of short-chain glycosylated genistein in the reaction solution ([2]; 55° C.): 5.6 g/L
content of long-chain glycosylated genistein in the reaction solution ([2]; 60° C.): 5.7 g/L
content of short-chain glycosylated genistein in the reaction solution ([2]; 60° C.): 3.6 g/L
ratio of the molar content of long-chain glycosylated genistein to the molar content of total glycosylated genistein in the reaction solution ([2]; FIG. 1, highest value reached with rising temperature): 49%
increase of the ratio of long-chain to total glycosylated genistein in comparison with 40° C. ([2]; FIG. 1, versus 40° C.): 21%
yield of long-chain glycosylated genistein ([2]; temperature 45-50° C. (highest)): 10.2 to 10.4 g/L
ratio of the molar content of long-chain glycosylated genistein to the molar content of total glycosylated genistein in the reaction solution ([4]; FIG. 2, pH 4 (highest)): 70%
increase of the ratio of long-chain to total glycosylated genistein in comparison with pH 6.5 ([4]; FIG. 2, pH 4 versus pH 6.5): 30%
content of long-chain glycosylated genistein in the reaction solution ([4]; pH 4, 50° C.): 10.2 g/L
content of short-chain glycosylated genistein in the reaction solution ([4]; pH 4, 50° C.): 2.6 g/L
yield of long-chain glycosylated genistein ([4]; pH 4 or 8 (highest), 50° C.): 10.2 to 10.3 g/L
increase of the yield of long-chain glycosylated genistein in comparison with pH 6.5 ([4]; pH 4 or 8 versus pH 6.5): 20%
content of long-chain glycosylated genistein in the reaction solution ([4]; pH 5, 50° C.): 7.2 g/L
content of short-chain glycosylated genistein in the reaction solution ([4]; pH 5, 50° C.): 8.8 g/L
content of long-chain glycosylated genistein in the reaction solution ([4]; pH 6, 50° C.): 8.5 g/L
content of short-chain glycosylated genistein in the reaction solution ([4]; pH 6, 50° C.): 8.0 g/L
content of long-chain glycosylated genistein in the reaction solution ([4]; pH 7, 50° C.): 9.7 g/L
content of short-chain glycosylated genistein in the reaction solution ([4]; pH 7, 50° C.): 5.5 g/L
content of long-chain glycosylated genistein in the reaction solution ([4]; pH 8, 50° C.): 10.3 g/L
content of short-chain glycosylated genistein in the reaction solution ([4]; pH 8, 50° C.): 3.6 g/L
